Assay results: PMC3348880, “MSMEG_2731, an Uncharacterized Nucleic Acid Binding Protein from Mycobacterium smegmatis, Physically Interacts with RPS1” (PLoS ONE, 2012)

T1: purified recombinant RPS1 (M. smegmatis, UniProt A0QYY6 1-479)
T1 construct: 30S ribosomal protein S1 (RPS1) of Mycobacterium smegmatis, gene amplified from M. smegmatis genomic DNA; Cloned into pET28a or pGEX-6P-1; also called purified RPS1; ribosomal protein S1; source: E. coli BL21 (DE3), purified
T1 sequence (looked up): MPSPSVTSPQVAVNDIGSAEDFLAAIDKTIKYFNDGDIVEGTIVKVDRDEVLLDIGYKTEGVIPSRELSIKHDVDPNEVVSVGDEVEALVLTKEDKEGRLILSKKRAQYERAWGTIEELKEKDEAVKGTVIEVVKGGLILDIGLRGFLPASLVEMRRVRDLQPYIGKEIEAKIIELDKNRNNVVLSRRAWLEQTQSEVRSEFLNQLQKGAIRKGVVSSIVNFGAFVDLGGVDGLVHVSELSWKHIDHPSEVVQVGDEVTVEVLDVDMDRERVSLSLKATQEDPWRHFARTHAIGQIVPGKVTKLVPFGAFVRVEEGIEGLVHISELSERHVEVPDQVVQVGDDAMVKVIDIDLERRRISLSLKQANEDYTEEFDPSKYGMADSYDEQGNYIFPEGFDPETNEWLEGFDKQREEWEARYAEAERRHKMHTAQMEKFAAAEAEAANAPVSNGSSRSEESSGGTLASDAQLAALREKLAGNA

T2: MSMEG_2731;30S ribosomal protein S1 (RPS1) (Mycobacterium smegmatis;Mycobacterium …, UniProt A0QVX6;A0QYY6 1-454;1-479, |)
T2 sequence 1: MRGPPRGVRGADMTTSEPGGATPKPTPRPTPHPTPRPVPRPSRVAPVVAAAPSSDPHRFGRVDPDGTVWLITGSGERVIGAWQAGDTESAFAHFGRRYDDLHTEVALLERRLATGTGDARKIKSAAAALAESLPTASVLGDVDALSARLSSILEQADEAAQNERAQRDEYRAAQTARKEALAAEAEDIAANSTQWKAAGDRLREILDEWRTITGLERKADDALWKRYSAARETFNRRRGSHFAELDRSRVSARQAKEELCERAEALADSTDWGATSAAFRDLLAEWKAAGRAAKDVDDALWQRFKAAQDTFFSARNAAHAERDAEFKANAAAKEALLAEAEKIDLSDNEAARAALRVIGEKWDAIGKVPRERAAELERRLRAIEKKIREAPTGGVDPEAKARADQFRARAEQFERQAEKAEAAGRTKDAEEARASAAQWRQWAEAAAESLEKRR
T2 sequence 2: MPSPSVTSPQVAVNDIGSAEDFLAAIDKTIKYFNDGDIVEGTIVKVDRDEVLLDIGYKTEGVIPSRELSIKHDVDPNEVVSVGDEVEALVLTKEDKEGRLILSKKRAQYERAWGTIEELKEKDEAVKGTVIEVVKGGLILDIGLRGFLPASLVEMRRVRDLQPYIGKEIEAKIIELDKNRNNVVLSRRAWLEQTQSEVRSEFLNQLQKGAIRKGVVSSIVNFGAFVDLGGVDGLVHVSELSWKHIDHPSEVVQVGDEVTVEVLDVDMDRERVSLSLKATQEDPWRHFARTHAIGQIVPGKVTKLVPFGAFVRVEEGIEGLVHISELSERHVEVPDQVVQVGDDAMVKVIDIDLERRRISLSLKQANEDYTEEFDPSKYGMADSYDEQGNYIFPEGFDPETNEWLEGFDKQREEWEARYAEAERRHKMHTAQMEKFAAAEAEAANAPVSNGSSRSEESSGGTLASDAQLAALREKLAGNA

T3: 30S ribosomal protein S1 (RPS1) (Mycobacterium smegmatis, UniProt A0QYY6 1-479)
T3 sequence: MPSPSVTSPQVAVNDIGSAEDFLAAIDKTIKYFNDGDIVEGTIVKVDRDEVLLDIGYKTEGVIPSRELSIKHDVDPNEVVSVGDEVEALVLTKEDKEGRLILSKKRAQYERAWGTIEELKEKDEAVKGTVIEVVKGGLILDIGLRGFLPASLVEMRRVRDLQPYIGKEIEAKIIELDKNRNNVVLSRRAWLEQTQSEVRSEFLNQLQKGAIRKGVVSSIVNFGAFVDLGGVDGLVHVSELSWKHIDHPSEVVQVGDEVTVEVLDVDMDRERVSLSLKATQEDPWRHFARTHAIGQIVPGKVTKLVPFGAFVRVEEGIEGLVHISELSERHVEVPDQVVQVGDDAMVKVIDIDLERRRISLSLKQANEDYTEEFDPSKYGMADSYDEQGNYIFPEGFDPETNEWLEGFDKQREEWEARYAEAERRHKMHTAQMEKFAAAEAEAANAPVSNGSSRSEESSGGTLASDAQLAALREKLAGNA


Legend:
[1] = target: T1, purified recombinant RPS1; assay: SPR; Biacore T100, 25°C; mixtures of 2.5 μM RPS1 with 1.25, 2.5 or 5 μM MSMEG_2731 passed over RNA immobilised on an SA chip (100 RU); 25 mM Tris-HCl pH 7.4, 150 mM NaCl, 0.005% Tween 20; settings: both partners purified
[2] = target: T2, MSMEG_2731;30S ribosomal protein S1 …; assay: SPR; 2.5 uM RPS1 with 1.25, 2.5 or 5 uM MSMEG_2731; maximum response at 1:1; kinetics like RPS1 alone; SPR (Biacore T100, SA chip): 25 mM Tris-HCl pH 7.4, 150 mM NaCl, 0.005% Tween 20, 25 C, 30 ul/min; settings: protein: recombinant;recombinant; Methods name pET28a or pGEX-6P-1; copies: 1;1; label: 5' biotin (immobilized on SA chip); single strand
[3] = target: T3, 30S ribosomal protein S1 (RPS1); assay: SPR; 2.5 uM RPS1; fast association, complete dissociation; SPR (Biacore T100, SA chip): 25 mM Tris-HCl pH 7.4, 150 mM NaCl, 0.005% Tween 20, 25 C, 30 ul/min; settings: protein: recombinant; Methods name pET28a or pGEX-6P-1; label: 5' biotin (immobilized on SA chip); single strand

| stoichiometry N [1] | Binder | binding result [2] | binding result [3] |
| --- | --- | --- | --- |
| 1 | MSMEG_2731, N-terminal His-tagged recombinant protein (natural protein, M. smegmatis, UniProt A0QVX6 1-454, looked up, MSMEG_2731, conserved hypothetical alanine and arginine rich protein of Mycobacterium smegmatis, 454 amino acids, three tandem repeats of DUF349; The protein tends to degrade at its N-terminus in vitro; also called full-length MSMEG_2731; recombinant MSMEG_2731; source: E. coli BL21 (DE3), pET28a, purified (Ni-NTA, gel filtration)) MRGPPRGVRGADMTTSEPGGATPKPTPRPTPHPTPRPVPRPSRVAPVVAAAPSSDPHRFGRVDPDGTVWLITGSGERVIGAWQAGDTESAFAHFGRRYDDLHTEVALLERRLATGTGDARKIKSAAAALAESLPTASVLGDVDALSARLSSILEQADEAAQNERAQRDEYRAAQTARKEALAAEAEDIAANSTQWKAAGDRLREILDEWRTITGLERKADDALWKRYSAARETFNRRRGSHFAELDRSRVSARQAKEELCERAEALADSTDWGATSAAFRDLLAEWKAAGRAAKDVDDALWQRFKAAQDTFFSARNAAHAERDAEFKANAAAKEALLAEAEKIDLSDNEAARAALRVIGEKWDAIGKVPRERAAELERRLRAIEKKIREAPTGGVDPEAKARADQFRARAEQFERQAEKAEAAGRTKDAEEARASAAQWRQWAEAAAESLEKRR | – | – |
| – | CACGUAUCUCGAGGAGCGGAUAUGA (ssRNA, 5' biotin) [RNA 25 nt] | binds | binds |
